{
  "source": "patent US20230348852A1",
  "about": "“METHODS AND COMPOSITIONS FOR OCULAR CELL THERAPY” (NOVARTIS AG, priority 2020, published 2023)",
  "key": {"B2M": {"tested_on": "B2M", "assay": "sgRNA screening for B2M knockout in LSCs (nucleofection, FACS)", "format": "cell-based, human", "conditions": "Cas9 protein SEQ ID NO: 106, LSCs at passage 3, FACS after around 3 days"}, "[1]": {"tested_on": "genomic DNA purified from male human peripheral blood mononuclear cells", "assay": "Biochemical assay for potential off-target genomic sites cleaved by Cas9 and B2M guides", "conditions": "number of potential off-target sites, guide concentration 64 nM", "description": "A biochemical method (See, e.g., Cameron et al., Nature Methods. 6, 600-606; 2017) was used to determine potential off-target genomic sites cleaved by Cas9 and selected B2M guides. Guides showing B2M indel activity were tested for potential off-target genomic cleavage sites with this assay. […] The number of potential off-target sites detected using a guide concentration of 64 nM in the biochemical assay are shown in Table 10. As a result of this analysis, several gRNAs were selected for analysis of potential off-target activity in limbal stem cells."}, "[2]": {"tested_on": "beta-2-microglobulin gene", "assay": "CRISPR/Cas9-mediated deletion of B2M in LSCs (nucleofection, FACS)", "format": "cell-based, human", "conditions": "nucleofection with Cas9 protein SEQ ID NO: 107, LSCs at passage 0, FACS", "description": "LSCs at passage 0 were trypsinized with TryLE®Express Enzym (ThermoFisher, Cat #12605010) for 15 min in 5%CO2 at 37° C. After scraping the cells, the reaction was stopped by using cell culture medium containing 10% Serum and transferred to a falcon tube. After counting cells using Vi-cell 200′000 cells were prepared per reaction by transferring 200′000 cells in single tubes and centrifuged at 1000 rpm for 5 min.\nThe supernatant was aspirated using manually pipetting to avoid cell loss and the cells were resuspended in the Stem cell nucleofector solution II (Lonza, Cat #VPH-5022). Resuspend cells in nucleofector solution immediately before adding the Cas9 protein:sgRNA mixture. A stock of 100 µM (3.23 µg/µl) was prepared resuspending 5.1 nanomoles of single-guideRNA (sgRNA) in 51 µl 10 mM Tris buffer pH7.4. […]\nIn order to prevent cells sticking to the wall, collection tubes were filled with FACS buffer for 30 minutes before the sort and aspirated before adding the collection medium. […] FACS data were analyzed using BD FACSDiva software and FlowJo software."}},
  "data": [
    {"molecule": "1-CR004366: gRNA targeting human B2M; targeting domain SEQ ID NO: 108; sgRNA SEQ ID NO: 120; from Dharmacon (nucleic acid, listed as RNA, chemistry not given here, gRNA targeting human B2M; from Dharmacon) guide: GAGUAGCGCGAGCACAGCUAGUUUUAGAGCUAGAAAUAGCAAGUUAAAAUAAGGCUAGUCCGUUAUCAACUUGAAAAAGUGGCACCGAGUCGGUGCUUUU", "values": [
      {"measurement": "B2M knockout efficiency in LSCs after nucleofection", "setting": "B2M", "value": 55, "unit": "%"},
      {"measurement": "off-target Site_ Count", "setting": "[1]", "value": 69},
      {"measurement": "LSCs not expressing B2M and HLA I (HLA A, B and C) on cell surface", "setting": "[2]", "value": "about 70%"}
    ]}
  ]
}
